# ± gives the standard deviation.
# Experiment: protein stability index of a GFP-peptide fusion (GPS, HEK-293T) (PSI 1-6); higher = more stable
# [1] = treatment: DMSO, c terminus: a fixed tail appended
# [2] = treatment: MLN4924 1 uM, 8 h, c terminus: a fixed tail appended
# [3] = treatment: DMSO, c terminus: native
# [4] = treatment: MLN4924 1 uM, 8 h, c terminus: native
# 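Also: 24-mer peptide tiles fused after GFP, lentivirally expressed, FACS-sorted into six equal bins by GFP/DsRed ratio, decoded by Illumina sequencing, PSI is the read-weighted mean bin number.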
Sequence,protein stability index [1],protein stability index [2],protein stability index [3],protein stability index [4]
MAAGGSGVGGKRSSKSDADSGFLG [NOP53],3.57 ± 0.22,3.96 ± 0.12,–,–
ISEAFSQRVGFGDDFDEDELMAEL [CHMP4C],4.86 ± 0.32,5.07 ± 0.2,–,–
MEKSSFTEYIESPDVENEVKRLLR [TAF7L],3.79 ± 0.28,3.83 ± 0.23,–,–
EYVAIKLEPMKSRAPQLHLEYRFY [CSNK1G3],3.3 ± 0.41,2.93 ± 0.64,–,–
SSNLLDLKNPFFRYTGTTPSPPPG [CARM1],3.29 ± 0.29,3.42 ± 0.15,–,–
VIAINYNEKIYELRVMETKPDKAV [UFD1],1.89 ± 0.27,2.39 ± 0.24,–,–
LGSKHKVCMDLRANLKQVKKEDTE [TNNI2],4.76 ± 0.16,4.94 ± 0.23,–,–
ARRQHLKSVMLQIAATELEKEESR [TNNI2],4.31 ± 0.23,4.36 ± 0.33,–,–
HVKKLQQKVATLEKRNRQLRERVK [CCDC3],3.72 ± 0.26,4 ± 0.61,–,–
QFQDLTGIESMDQCRHTLEQHNWN [FAF2],3.1 ± 0.38,3.37 ± 0.13,–,–
VAIFGPPNTLYEGGYFKAHIKFPI [UBE2R2],3.24 ± 1,2.95 ± 0.97,–,–
TFPHSISAKNTSHPGSGTKVQFNL [SASS6],2.89 ± 0.33,3 ± 0.46,–,–
VSTQRSQDHFHVFVGDLSPEITTE [TIA1],3.98 ± 0.29,3.92 ± 0.41,–,–
KSMGLKKKAFVWARNIGFKVNSKK [ACSBG2],2.91 ± 0.3,2.83 ± 0.37,–,–
VWMLMLLLAVPNIILTNQSVREVT [P2RY14],3.27 ± 0.3,2.96 ± 0.46,–,–
EKTQKNQCWKSLFIDTYSDVGRYI [FBXO3],2.53 ± 0.73,2.15 ± 0.33,–,–
AYVLSKYQYFVCPVEYRSDVNSFV [CDS1],2.6 ± 0.46,2.68 ± 0.75,–,–
GRSREELDELTGEVAGGGTPLLIA [FEM1A],4.6 ± 0.26,4.77 ± 0.26,–,–
QGEGPEAGDAEVCPTPARLATTEK [NOP53],5.46 ± 0.27,5.44 ± 0.19,–,–
LNVGNERYVFEAVIRWIAHDTEIR [GAN],2.53 ± 0.57,2.61 ± 0.56,–,–
LVQVESVNLQVATYSKFQPQSPDF [UFD1],2.32 ± 0.22,2.35 ± 0.32,–,–
CADVILVLQERVRIFAHKIYLSTS [RHOBTB2],3.01 ± 0.25,3.02 ± 0.49,–,–
VHVIGVEEPSVGASMLFDIREST [ZNF8],–,–,2.3 ± 0.27,2.38 ± 0.17

Sequence,protein stability index [1],protein stability index [2],protein stability index [3],protein stability index [4]
DMSIGGNLSKTQNMERFGEDNLED [CDC14A],5.27 ± 0.14,5.34 ± 0.21,–,–
DCLLCFPETLPESSLFSVEANSSN [C8orf76],3.58 ± 0.29,3.58 ± 0.6,–,–
DTISTIKSVAWEGGACPAFLPSLR [NCF4],2.92 ± 0.3,2.9 ± 0.38,–,–
FDDYSATLPLTLIVILENIAVAWI [SLC6A17],2.69 ± 0.44,3.28 ± 0.71,–,–
SEDNTSFDRKKKSISLMYGGSKRK [SLA],4.66 ± 0.26,4.91 ± 0.27,–,–
APLRKLSVDLIKTYKHINEVYYAK [DYRK1B],2.84 ± 0.15,2.96 ± 0.25,–,–
VIRWIAHDTEIRKVHMKDVMSALW [GAN],2.38 ± 0.63,2.08 ± 0.2,–,–
EDPSFWDCFCFTEEIPIRNGTKS [AASDHPPT],–,–,3.92 ± 0.12,4.22 ± 0.22
GTWVTFGGQITDEMAEQLMTLAYD [KCNAB2],2.17 ± 0.37,2.28 ± 0.29,–,–
TLQHWPHIIRIGDLKPTGEIPKQV [DENND6A],2.3 ± 0.29,2.74 ± 0.24,–,–
LQALDPQQCVDKESSLGSESEEEE [SLC22A15],5.56 ± 0.28,5.59 ± 0.1,–,–
KLTLENFYSNLILQHEERETRQKK [STK38L],3.24 ± 0.39,3.29 ± 0.46,–,–
LQSAPDVKGRVRCLTAGPEVAAQL [ZSWIM9],3.51 ± 0.28,3.6 ± 0.058,–,–
DIVWGKIHGFPWWPARVLDISLGQ [PWWP2B],2.7 ± 0.86,2.38 ± 0.42,–,–
VLRTWRTNLPKGACALLLTSVDHD [DLC1],2.26 ± 0.66,2.44 ± 0.39,–,–
AAANCHFHCIETLVTTGANVNETD [ANKRD44],3.99 ± 0.22,4.08 ± 0.15,–,–
VAQTSLEEFNVLEMEVMRRQLYAV [FATE1],2.31 ± 0.37,2.21 ± 0.44,–,–
GFENMDFFTLDLEHIADALRAIDF [TRIM63],2.11 ± 0.17,2.25 ± 0.35,–,–
ITSETTSTTTTTHITKTVKGGISE [EPB41L3],5.06 ± 0.22,4.69 ± 0.79,–,–
RKLSLKGHNDWVMDVAISNNKKWI [WDR88],2.69 ± 0.42,2.39 ± 0.29,–,–
PDRGSPEYRQRRERNNIAVRKSRD [CEBPD],5.03 ± 0.37,5.35 ± 0.12,–,–
RDNAELEKLIQERSQQQEPLLCPS [KRT34],4.94 ± 0.13,4.87 ± 0.27,–,–
LEAHCVEFLTKHLRADNAFMLLTQ [BTBD1],2.55 ± 0.76,2.81 ± 0.47,–,–

Sequence,protein stability index [1],protein stability index [2],protein stability index [3],protein stability index [4]
LVRDWSFPYEYSYGLQGGMAFLDK [ATL3],1.96 ± 0.23,2.19 ± 0.38,–,–
KKRFTRRSHLIGHQRTHSEEETYK [ZNF449],4.12 ± 0.42,4.23 ± 0.46,–,–
AATDITGFGILGHSQNLAKQQRNE [SEPHS2],4.68 ± 0.38,4.57 ± 0.31,–,–
SRVMFLLVDKETDKRHVEQKIQFK [PDZK1],2.62 ± 0.32,2.88 ± 0.26,–,–
SLKDGLSDSDSELSSSEGLEPGSA [PSD2],5.47 ± 0.28,5.6 ± 0.13,–,–
SKSKQPAGHRRPAGGIRESKESSK [C22orf31],5.35 ± 0.055,4.91 ± 0.53,–,–
FVQDVLFVLQAIGIPGWGFSGWIS [SCAMP3],3.33 ± 0.35,2.73 ± 0.33,–,–
RHLAHSMLQRAIAYQHSGHLESKD [C10orf62],3.91 ± 0.24,3.92 ± 0.21,–,–
LANRLCLPHLVALTEQYTVTGLME [RHOBTB2],2.57 ± 0.6,2.43 ± 0.39,–,–
FSGRMEVLTDSEGWILIDRCGKHF [KCTD10],2.57 ± 0.28,2.77 ± 0.4,–,–
PEKASELSQVELQAAPGALPVSSP [TRIM55],5.21 ± 0.38,5.49 ± 0.24,–,–
WFFLQSELKKLKNLEGNELQRHAD [FUT8],2.56 ± 0.34,2.71 ± 0.41,–,–
WFSCQGPFDMDSCLSRHSINPYSN [DFFB],2.35 ± 0.24,2.2 ± 0.27,–,–
ALDYLQNQRIIHRDMKPDNILLDE [STK32A],3.14 ± 0.17,3.47 ± 0.45,–,–
VCTDTDRWSLISLSNKNGKNVELK [TENT5C],3.46 ± 0.27,3.57 ± 0.17,–,–
ESLKVIGRGAFGEVRLVQKKDTGH [STK38L],4.69 ± 0.17,4.63 ± 0.19,–,–
EVDPTGHSFVLVTSLGLTYDGMLS [MAGEA10],2.51 ± 0.47,2.52 ± 0.51,–,–
NNMNAVNLFFAWIKIFKYISFNKT [PKD2L1],2.81 ± 0.46,2.58 ± 0.54,–,–
LEKESDTPLQQVSIEEILEEQRVE [LSM1],5.26 ± 0.26,5.53 ± 0.098,–,–
ELLTLVNRKVSQRRVDFCKDPSAI [CASP6],2.22 ± 0.36,2.24 ± 0.14,–,–
YEAIAKHNQVEAAWLEGRIRQEFD [TRIM35],3.9 ± 0.25,3.85 ± 0.18,–,–
THEVMGPKKKHLDYLIQATNETNV [SNAP91],3.85 ± 0.32,3.69 ± 0.64,–,–
WGFRLVGGRDFSAPLTISRVHAGS [PDLIM4],2.02 ± 0.24,2.17 ± 0.32,–,–

Sequence,protein stability index [1],protein stability index [2],protein stability index [3],protein stability index [4]
QYVTFLRSFSDKQKISLLHSCTCV [ALG2],3.1 ± 0.51,2.69 ± 0.48,–,–
LLDHNANIDIQNGFLLRYAVIKSN [ASB7],2.53 ± 0.17,2.14 ± 0.2,–,–
FSAYIDSMAAVPTLELCHDELFAD [CEBPD],3.29 ± 0.37,3.1 ± 0.3,–,–
SVPLDPMERPMSQADLELDYNPPR [CBY2],4.75 ± 0.6,4.98 ± 0.23,–,–
CQVFPERLAQGNPQQGFFSSFFTC [ATP23],2.07 ± 0.29,2.14 ± 0.33,–,–
FIEALIQQYQEQLDKSTKLVETAI [TRIM63],2.66 ± 0.52,2.14 ± 0.39,–,–
ALNWTDIPVAMEHQPPYIIAVLPR [VPS39],2.23 ± 0.38,2.25 ± 0.29,–,–
PGSFWGLCQVAQEALASAGASCCG [VENTX],2.41 ± 0.4,2.54 ± 0.22,–,–
SIVSGGYGGSGDGLIPTGSGRHPS [ARFIP2],3.96 ± 0.19,4.34 ± 0.42,–,–
AVVKPGNTKEKIAFFASHQCSNRI [FBXO34],3.81 ± 0.24,3.83 ± 0.35,–,–
EMWADQLTSLKDLYKSLKTLSAEL [CEP70],2.3 ± 0.18,2.1 ± 0.25,–,–
SMLLQRFSVAPHETQTQRGGEFQC [RNF180],3.05 ± 0.097,3.31 ± 0.26,–,–
NDFGVFLCKLFPFLQKSSVGITVL [EDNRA],2.88 ± 0.52,3.26 ± 0.73,–,–
GTGLVLDEQLNEFHCLWDDSFPEG [HDAC6],4.12 ± 0.34,3.96 ± 0.16,–,–
SIYPMEVLKTRMALRKTGQYSGML [SLC25A25],2.48 ± 0.36,2.6 ± 0.52,–,–
TRFTEEYQLFEELGKGAFSVVRRC [CAMK2A],2.63 ± 0.39,2.54 ± 0.26,–,–
PSLEELGFDTDGLSSAVWPGGETE [CRY1],5.33 ± 0.28,5.29 ± 0.16,–,–
TVASMMHRQETVECLKKFNARRKL [CAMK2B],3.41 ± 0.4,3.74 ± 0.33,–,–
KDAYVQKLVKVCNGHDCWSLISLS [TENT5D],2.43 ± 0.41,2.14 ± 0.26,–,–
NSRVDDTFWASWRAFAQIGPARSG [MIR22HG],2.6 ± 0.32,2.79 ± 0.35,–,–

# Reference: the supplement of paper PMC10567573
